Results on 15 molecules are retold here after patent US20220195057A1 (LANOVA MEDICINES, published 2022).

One may read the EC50 as the concentration that produces a half-maximal response.

Where a chain is given by its changes, count along the chain named.

The target in assay [1] is human chemokine (C-C motif) receptor 8 (CCR8) protein (human) (UniProt P51685). Briefly: flow cytometry, high-CCR8-expressing U2OS cells. For orientation: In flow cytometry, cells or beads pass a laser one at a time.
The target is the same in assay [2]. Briefly: flow cytometry, low-CCR8-expressing Jurkat cells.
Assay [3] has as its target T1, human chemokine (C-C motif) receptor 8 (CCR8) protein (human, UniProt P51685 1-355). Briefly: cell-based or functional assay.
The target in assay [4] is T1, human chemokine (C-C motif) receptor 8 …. Briefly: cell binding, CCR8-expressing U2OS cells, curve fit. On the set-up: LogEC50: unit not given here.
The target is the same in assay [5]. Briefly: cell binding, CCR8-expressing CHO-K1 cells, curve fit. On the set-up: LogEC50: unit not given here.
For assay [6] the target is unchanged. Briefly: cell binding, CCR8-expressing U2OS cells, curve fit. On the set-up: LogEC50: unit not given here. The source holds these as a separate data set.
Assay [7] shares this target. In words: cell binding, CCR8-expressing CHO-K1 cells, curve fit. On the set-up: LogEC50: unit not given here. This is another data set of the same source.
Assay [8] has the same target. In words: flow cytometry, CCR8-expressing HEK293 cells. An outline of the steps:
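Cell binding was measured by flow cytometry on HEK293 cells overexpressing human CCR8, alongside parental HEK293 cells. Antibodies were titrated from 200 nM in 4-fold dilutions over 12 points and incubated with the cells at 4° C for 60 minutes. Cells were washed twice with FACS buffer, stained with Alexa Fluor 647 goat anti-human IgG at 4° C for 60 minutes, washed twice and analysed. The read-out is binding EC50.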

The target is the same in assay [9]. In words: flow cytometry, high-CCR8-expressing U2OS cells. The source says: The cells used were U2OS (U2OS/H_CCR8).
Assay [10] has the same target. In words: flow cytometry, low-CCR8-expressing Jurkat cells. The source says:
The cells used were Jurkat engineering cells (Jurkat/H_CCR8).

On to isotype control (antibody), for which the Max (MFI) stood at 215 MFI in assay [1] and 134 MFI in [2].

B1: LM-108-vc-MMAE (other)
VH: EVQLVESGGGLVQPGGSLKLSCAASGFTFNTYAMNWVRQASGKGLEWVARIRSKANNYATYYADSVKDRFTISRDDSKNTLYLQMNNLKTEDTAVYYCVRDRSRGEDYAMDYWGQGTLVTVSS
VL: DIVMTQSPLSLPVTPGEPASISCRSSKSLLHSNANTYLYWFLQKPGQSPQLLIYRMSNLASGVPDRFSGSGSGTAFTLKISRVEAEDVGVYYCMQHLEYPFTFGQGTKLEIK
modifications: vc-MMAE (monomethyl auristatin E) conjugated to the antibody; site and drug number not stated
For the molecule B1, the “cytotoxicity IC50 (Cell-Titer-Glo viability, 96 hours)” value in assay [3] is 528 pM.

B2: 137-H2L2 (antibody, V domains shown)
VH: B1 VH with A49G, L81A
VL: B1 VL
notes: Humanized 137D1H10
Regarding B2, in assay [4], the Bottom is 915, the LogEC50 was -0.842, the Span was 25300 and the Top was 26300. In [5], the Bottom turned out to be 2550, the LogEC50 was -0.789, the Span was determined as 26800 and the Top stood at 29300.

B3: 88-H2L2 (antibody, V domains shown)
VH: EVQLVESGGGLVQPGGSLKLSCAASGFTFNPNAMNWVRQASGKGLEWVGRIRSKSNNYATYYADSVKDRFTISRDDSKNTAYLQMNNLKTEDTAVYYCVRGKDDGYRHYAMDYWGQGTTVTVSS
VL: B1 VL with Q105G, L109V
notes: Humanized 88D2C6
In assay [6], B3 gave a Bottom of 2760, a LogEC50 of -0.724, a Span of 25600 and a Top of 28300. Moreover, in [7], the Bottom turned out to be 2490, the LogEC50 was -0.639, the Span came to 30300 and the Top came out at 32800.

B4: 137-xi (antibody, V domains shown)
VH: B1 VH with G15K, A23T, S41P, K78Q, N79R, T80I, T90A, V95M, L118S
VL: DIVMTQAAPSVPVTPGESVSISCRSSKSLLHSNGNTYLYWFLQRPGQSPQLLIYRMSNLASGVPDRFSGSGSGTAFTLRISRVEAEDVGVYYCMQHLEYPFTFGAGTKLELK
notes: also called 137D1H10; chimeric 137D1H10
In assay [4], B4 yielded a Bottom of 2170, a LogEC50 of -0.605, a Span of 31300 and a Top of 33400. In [5], this molecule registered a Bottom of 3030, a LogEC50 of -0.779, a Span of 31900 and a Top of 34900.

B5: 88-H2L3 (antibody, V domains shown)
VH: B3 VH
VL: B1 VL with S7A, A19V, Q105G
notes: Humanized 88D2C6
B5: in [6], the Bottom worked out at 1530, the LogEC50 is -0.512, the Span stood at 24200 and the Top turned out to be 25800. In assay [7], this molecule came in with a Bottom of 2280, a LogEC50 of -0.546, a Span of 29300 and a Top of 31600.

B6: 88-H3L3 (antibody, V domains shown)
VH: B3 VH with G49A, A81L
VL: B1 VL with S7A, A19V, Q105G
notes: Humanized 88D2C6
For B6, in assay [6], the Bottom came to 1620, the LogEC50 was -0.629, the Span came out at 25800 and the Top stood at 27400. In [7], this molecule displayed a Bottom of 3470, a LogEC50 of -0.583, a Span of 28700 and a Top of 32200.

B7: 137-H3L3 (antibody, V domains shown)
VH: B1 VH
VL: B1 VL with A19V
notes: Humanized 137D1H10
Take B7: in assay [4], the Bottom was determined as 2100, the LogEC50 is -0.717, the Span was 29800 and the Top was 31900. In [5], this molecule registered a Bottom of 3820, a LogEC50 of -0.754, a Span of 29600 and a Top of 33400.

B8: 137-H2L3 (antibody, V domains shown)
VH: B1 VH with A49G, L81A
VL: B1 VL with A19V
notes: Humanized 137D1H10
Consider B8, for which, in assay [4], the Bottom stood at 1320, the LogEC50 is -0.484, the Span worked out at 25900 and the Top worked out at 27300. In assay [5], the Bottom was determined as 2240, the LogEC50 was -0.505, the Span was 27900 and the Top amounted to 30200.

B9: 88-H3L2 (antibody, V domains shown)
VH: B3 VH with G49A, A81L
VL: B1 VL with Q105G, L109V
notes: Humanized 88D2C6
In assay [6], B9 registered a Bottom of 2830, a LogEC50 of -0.684, a Span of 24600 and a Top of 27400. Besides, in assay [7], the Bottom was determined as 3940, the LogEC50 is -0.686, the Span came out at 28600 and the Top is 32500.

B10: 137-H3L2 (LM-108) (antibody, V domains shown)
VH: B1 VH
VL: B1 VL
notes: Humanized 137D1H10; Detected with anti-human IgG
In the case of B10, in [3], the “ADCC EC50 with primary human PBMCs (cytotoxicity detection)” value amounted to 2 pM. This molecule also had an EC50 in assay [8] of 1030 pM. The same molecule showed an EC50 in assay [9] of 250 pM. In assay [10], this molecule registered an EC50 of 212 pM. Also, in [4], the Bottom is 2060, the LogEC50 was -0.69, the Span was determined as 30200 and the Top stood at 32300. In [5], this molecule returned a Bottom of 4260, a LogEC50 of -0.684, a Span of 28900 and a Top of 33200.

B11: 88-H1L2 (antibody, V domains shown)
VH: B3 VH with N87S, V99T
VL: B1 VL with Q105G, L109V
notes: Humanized 88D2C6
In assay [6], B11 registered a Bottom of 2110, a LogEC50 of -0.678, a Span of 26800 and a Top of 28900. In [7], the Bottom was determined as 2670, the LogEC50 is -0.751, the Span came out at 30100 and the Top worked out at 32800.

B12: 88-H1L3 (antibody, V domains shown)
VH: B3 VH with N87S, V99T
VL: B1 VL with S7A, A19V, Q105G
notes: Humanized 88D2C6
In [6], B12 gave a Bottom of 1540, a LogEC50 of -0.58, a Span of 26100 and a Top of 27600. Moreover, in assay [7], the Bottom was determined as 2140, the LogEC50 was -0.519, the Span was 29800 and the Top came to 31900.

B13: 88D2C6 (fused to human IgG1 constant regions, with ADCC-activating mutations in Fc) (antibody, V domains shown)
VH: B3 VH with S7T, G15K, S41P, G49A, K78Q, N79S, T80M, A81L, V95M, T119S
VL: B4 VL
With B13, the “ADCC EC50 (CCR8-overexpressing CHO K1 cells)” value in [3] is 17.4 pM.

B14: 88-xi (antibody, V domains shown)
VH: B3 VH with S7T, G15K, S41P, G49A, K78Q, N79S, T80M, A81L, V95M, T119S
VL: B4 VL
notes: also called 88D2C6; chimeric 88D2C6
In the case of B14, in [6], the Bottom is 1030, the LogEC50 was -0.692, the Span worked out at 28600 and the Top was found to be 29700. Also, in [7], the Bottom was 3630, the LogEC50 was -0.655, the Span was found to be 30300 and the Top worked out at 33900.
